# Paper PMC9352680, “A comprehensive thermodynamic model for RNA binding by the Saccharomyces cerevisiae Pumilio protein PUF4”
# Substitutions are numbered along the chain they refer to. Names may count otherwise.
# T1: PUF4 RNA-binding domain (Saccharomyces cerevisiae, UniProt P25339 537-888)
# T1 sequence: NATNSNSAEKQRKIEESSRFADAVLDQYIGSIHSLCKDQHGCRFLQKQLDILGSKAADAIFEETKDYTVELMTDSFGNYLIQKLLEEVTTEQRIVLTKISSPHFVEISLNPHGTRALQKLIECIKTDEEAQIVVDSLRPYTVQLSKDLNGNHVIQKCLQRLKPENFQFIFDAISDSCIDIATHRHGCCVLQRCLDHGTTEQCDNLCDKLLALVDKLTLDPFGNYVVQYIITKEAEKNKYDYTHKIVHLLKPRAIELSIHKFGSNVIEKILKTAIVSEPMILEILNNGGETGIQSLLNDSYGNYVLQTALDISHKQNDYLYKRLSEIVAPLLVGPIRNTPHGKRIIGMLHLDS
# B1: Id_ii_S4_P4E.4_K4.3_C4.2_[C-2T]_[T-1A]_H4.3_A4.1_F4.1_T4.2_[G10T]_[T11C] (ssRNA)
# RNA: UUUGACAACUGAUCGUUCUUUCUUAACACUAUUAUCUUCUUUCUCGAUCAGUUGUCUUU
# B2: Id_ii_S4_P4E.4_K4.3_C4.2_[C-2G]_H4.3_A4.1_F4.1_T4.2_[G10T]_[T11A] (ssRNA)
# RNA: B1 RNA with U24G, A25U, C36A
# B3: If_S4_P4E.3_K4.2_C4.2_H4.2_A4.1_F4.1_T4.2 (ssRNA)
# RNA: UUUGACAACUGAUCGUUCUUUCUCUUAUAUAUUAGUUUCUUUCUCGAUCAGUUGUCUUU
# B4: Id_ii_S4_P4E.4_K4.3_C4.2_[T-1C]_H4.3_A4.1_F4.1_T4.2_[G10T]_[T11A] (ssRNA)
# RNA: B1 RNA with U24C, A25C, C36A
# B5: Id_ii_S4_P4E.4_K4.3_C4.2_[C-2T]_[T-1A]_H4.3_A4.1_F4.1_T4.2_[G10A]_[T11C] (ssRNA)
# RNA: B1 RNA with U35A
# B6: Id_ii_S4_P4E.4_K4.3_C4.2_[T-1G]_H4.3_A4.1_F4.1_T4.2_[G10C]_[T11A] (ssRNA)
# RNA: B1 RNA with U24C, A25G, U35C, C36A
# B7: Id_ii_S4_P4E.4_K4.3_C4.2_[C-2G]_H4.3_A4.1_F4.1_T4.2_[G10A]_[T11C] (ssRNA)
# RNA: B1 RNA with U24G, A25U, U35A
# B8: Id_ii_S4_P4E.4_K4.3_C4.2_[C-2T]_[T-1C]_H4.3_A4.1_F4.1_T4.2_[G10A]_[T11C] (ssRNA)
# RNA: B1 RNA with A25C, U35A
# B9: Id_ii_S4_P4E.4_K4.3_C4.2_[T-1A]_H4.3_A4.1_F4.1_T4.2_[T11C] (ssRNA)
# RNA: B1 RNA with U24C, U35G
# B10: Id_ii_S4_P4E.4_K4.3_C4.2_[C-2A]_H4.3_A4.1_F4.1_T4.2_[G10C]_[T11C] (ssRNA)
# RNA: B1 RNA with U24A, A25U, U35C
# B11: Id_ii_S4_P4E.4_K4.3_C4.2_[C-2G]_[T-1C]_H4.3_A4.1_F4.1_T4.2_[G10T]_[T11A] (ssRNA)
# RNA: B1 RNA with U24G, A25C, C36A
# B12: Id_ii_S4_P4E.4_K4.3_C4.2_[T-1A]_H4.3_A4.1_F4.1_T4.2 (ssRNA)
# RNA: B1 RNA with U24C, U35G, C36U
# B13: Id_ii_S4_P4E.4_K4.3_C4.2_[C-2T]_[T-1C]_H4.3_A4.1_F4.1_T4.2_[G10T]_[T11C] (ssRNA)
# RNA: B1 RNA with A25C
# B14: Id_ii_S4_P4E.3_K4.2_C4.2_H4.2_A4.1_F4.1_T4.2_[G10A]_[T11C] (ssRNA)
# RNA: B3 RNA with G35A, U36C
# B15: Id_ii_S4_P4E.4_K4.3_C4.2_[C-2G]_H4.3_A4.1_F4.1_T4.2_[G10T] (ssRNA)
# RNA: B1 RNA with U24G, A25U, C36U
# B16: Id_ii_S4_P4E.4_K4.3_C4.2_[C-2T]_[T-1A]_H4.3_A4.1_F4.1_T4.2_[G10T]_[T11A] (ssRNA)
# RNA: B1 RNA with C36A
# B17: Id_ii_S4_P4E.4_K4.3_C4.2_[T-1C]_H4.3_A4.1_F4.1_T4.2_[G10C] (ssRNA)
# RNA: B1 RNA with U24C, A25C, U35C, C36U
# B18: Id_ii_S4_P4E.4_K4.3_C4.2_[T-1C]_H4.3_A4.1_F4.1_T4.2_[G10C]_[T11C] (ssRNA)
# RNA: B1 RNA with U24C, A25C, U35C
# B19: Id_ii_S4_P4E.3_K4.2_C4.2_H4.2_A4.1_F4.1_T4.2_[G10A] (ssRNA)
# RNA: B3 RNA with G35A
# B20: Id_ii_S4_P4E.4_K4.3_C4.2_[C-2A]_H4.3_A4.1_F4.1_T4.2_[G10A] (ssRNA)
# RNA: B1 RNA with U24A, A25U, U35A, C36U
# B21: Id_ii_S4_P4E.4_K4.3_C4.2_H4.3_A4.1_F4.1_T4.2_[G10C]_[T11A] (ssRNA)
# RNA: B1 RNA with U24C, A25U, U35C, C36A
# B22: Id_ii_S4_P4E.4_K4.3_C4.2_[T-1C]_H4.3_A4.1_F4.1_T4.2_[G10A] (ssRNA)
# RNA: B1 RNA with U24C, A25C, U35A, C36U
# B23: Id_ii_S4_P4E.4_K4.3_C4.2_[C-2G]_H4.3_A4.1_F4.1_T4.2_[G10C]_[T11C] (ssRNA)
# RNA: B1 RNA with U24G, A25U, U35C
# B24: Id_ii_S4_P4E.4_K4.3_C4.2_[T-1A]_H4.3_A4.1_F4.1_T4.2_[G10C] (ssRNA)
# RNA: B1 RNA with U24C, U35C, C36U
# B25: Id_ii_S4_P4E.4_K4.3_C4.2_[T-1G]_H4.3_A4.1_F4.1_T4.2_[G10T] (ssRNA)
# RNA: B1 RNA with U24C, A25G, C36U
# B26: Id_ii_S4_P4E.4_K4.3_C4.2_[C-2G]_[T-1C]_H4.3_A4.1_F4.1_T4.2_[G10C]_[T11G] (ssRNA)
# RNA: B1 RNA with U24G, A25C, U35C, C36G
# B27: Id_ii_S4_P4E.4_K4.3_C4.2_[C-2T]_[T-1A]_H4.3_A4.1_F4.1_T4.2 (ssRNA)
# RNA: B1 RNA with U35G, C36U
# B28: Id_ii_S4_P4E.4_K4.3_C4.2_[C-2T]_[T-1A]_H4.3_A4.1_F4.1_T4.2_[G10C]_[T11A] (ssRNA)
# RNA: B1 RNA with U35C, C36A
# B29: Id_ii_S4_P4E.4_K4.3_C4.2_[C-2A]_[T-1C]_H4.3_A4.1_F4.1_T4.2_[G10C] (ssRNA)
# RNA: B1 RNA with U24A, A25C, U35C, C36U
# Target: T1, PUF4 RNA-binding domain
# Test: Mg; RNA-MaP; 20 mM Na-HEPES pH 7.4, 30 mM KOAc, 0.75 mM MgCl2, 0.1% Tween-20, 5% glycerol, 0.1 mg/mL BSA, 2 mM DTT; 25 C; 0.0125-409.6 nM protein
# Conditions: tags: N-His6-TEV cleaved; C-SNAP kept, Cy3B-labelled; label: tethered on chip by stalled RNA polymerase
row,Binder,Kd [nM]
1,B1,> 2300
2,B2,0.647
3,B3,8.97
4,B4,728
5,B5,> 2300
6,B6,> 2300
7,B7,1.54
8,B8,2110
9,B9,> 2300
10,B10,14.9
11,B11,28.5
12,B12,> 2300
13,B13,> 2300
14,B14,15.9
15,B15,0.388
16,B16,716
17,B17,> 2300
18,B18,1360
19,B19,10.8
20,B20,28.2
21,B21,944
22,B22,> 2300
23,B23,1.02
24,B24,> 2300
25,B25,> 2300
26,B26,2000
27,B27,> 2300
28,B28,> 2300
29,B29,> 2300
